Key:
[1] = test system: EA.hy926 (Human endothelial cells); assay: Cell migration by scratch assay in endothelial cells; assay type: cell-based
Procedure: EA.hy296 cells were counted using hemocytometer and plated in 6-well plates at the density of 0.5×10^6 cells/well. The cells were incubated overnight under growth conditions as described above so as to allow cell recovery and exponential growth. Following overnight incubation, a small linear scratch (representative wound) was created in the confluent monolayer (middle of the well) by gently scraping with sterile 200 μl micropipette tip. Photomicrographs of the scratch were taken at 0 h (Initial time point). Cells were rinsed with serum free DMEM and grouped for treatment in two different serum conditions:
• Baseline control: Cells+DMEM • Positive/Validation control: Baseline control+Positive Control. Test: Baseline control+Test Item
• Baseline control: Cells+DMEM+1% FBS • Positive/Validation control: Baseline control+Positive Control. • Test: Baseline control+Test item
Photomicrographs of the scratch were taken at 24 h-72 h time points. The photomicrographs obtained in the above step were analyzed for quantitative assessment of area of wound closure using ImageJ tool software. Percentage migration with respect to untreated cells at different time points was calculated.

MDA-MB-231 = assay: Cell cycle analysis (PI stain); assay type: cell-based, Human; settings: 24 h
Procedure: (§1) The cell lines were maintained in DMEM+10% FBS (heat inactivated) at 37° C. with 5% CO2, and 95% humidity. Antibiotics Penicillin (100 U/mL) and Streptomycin (100 μg/mL) were added to the medium.
(§2) The stock solution of recombinant lectin having the amino acid sequence of SEQ ID NO. […] Doxorubicin was used as positive control and stock solution was prepared in DMSO.
(§3) Cells were counted using hemocytometer and plated in culture plates at density of 0.5×10^6 cells/well in DMEM+10% FBS in 6-well plates. Cells were incubated overnight to allow the cell recovery and exponential growth. Following overnight incubation, cells were sera starved in DMEM+1% FBS for 4 h. […] Untreated cells were included as Control group for test item. Cells treated with Doxorubicin were included as Positive Control group. DMSO treated cells were included as control group for Doxorubicin. After treatment, cells were incubated for a time period of 24 h. Following incubation, the pro-apoptotic effect by cell cycle was determined as follows: Cell cycle reagent contains PI stain, which stains DNA of cells in different phases of cell cycle; Sub(G0/G1), G1, S, G2 and M. Cells in Sub(G0/G1) phase correspond to apoptotic cells.
(§4) Cells were gently harvested into pre-labeled centrifuge tubes and centrifuged at 450 g for 5 min, RT (low brake). The supernatants were removed carefully (not to touch the pellet) and discarded. 1 mL of 1×PBS was added to the pellet and resuspended gently to make homogenous suspension. Cells were centrifuged at 450 g for 5 min, RT (low brake) (washing step). The supernatant was carefully removed leaving behind approx 100 μL of PBS. Cells were resuspended gently yet thoroughly in residual PBS. Ice-cold 70% ethanol (300 μLI) was added drop-wise into cells in each tube while vortexing at low speed (fixation step). Cells were stored at 4° C. for 24 h prior to staining.
(§5) Ethanol fixed cells were centrifuged at 450 g for 5 min, RT (low brake). The supernatant was carefully removed (not to touch the pellet) and discarded. (The pellet might not be visible but makes a thin film on surface of tube). 1 mL of 1×PBS was added into pellet and resuspended gently. Cells were incubated for 1 min at RT. Cells were centrifuged at 450 g for 5 min, RT (low brake) (washing step). The supernatant was removed carefully leaving behind approx 20 μL-50 μL of PBS. 200 μL of Cell Cycle reagent was added into each tube.
(§6) Cells were resuspended gently, mixed and were incubated for 30 min, RT, Dark. The stained samples were transferred into 96-well plates and acquired on flow cytometer (Guava technologies). Percentage of cells in Sub (G0/G1) phase were determined. Fold increase in apoptotic cells (treated with Test Items) was determined as compared to Control (untreated cells).

PANC-1 = assay: Cell cycle analysis (PI stain); assay type: cell-based, Human; settings: 24 h
Procedure: as §1, §2, §3, §4, §5, §6

B1: SEQ ID NO. 2: recombinant lectin; variant of the S. rolfsii lectin amino acid sequence (reported as Rec-2 in WO 2010/095143) (protein)
chain: TYKITVRVYQTNPDAFFHPVEKTVWKYANGGTWTITDDQHVLTMGGSGTSGTLRFHADNGESFTATFGVHNYKRWCDIVTNLAADETGMVINQQYYSQKNREEARERQLSNYQVKNAKGRNFQIVYTEAEGNDLHANLIIG
modifications: In vitro synthesis
- inhibition of endothelial cells migration as compared to control (DMEM) ([1]; 20 μg/mL to 100 μg/mL, after 72 hrs): 71.5% to 82.4%
- Inhibition of migration with respect to untreated ([1]; 20 μg/mL, 24 h, 1% FBS): 0.8%
- Inhibition of migration with respect to untreated ([1]; 20 μg/mL, 24 h, SFM): 74%
- Inhibition of migration with respect to untreated ([1]; 20 μg/mL, 48 h, 1% FBS): 5.4%
- Inhibition of migration with respect to untreated ([1]; 20 μg/mL, 48 h, SFM): 81.1%
- Inhibition of migration with respect to untreated ([1]; 20 μg/mL, 72 h, SFM): 82.4%
- Inhibition of migration with respect to untreated ([1]; 40 μg/mL, 24 h, 1% FBS): 28.5%
- Inhibition of migration with respect to untreated ([1]; 40 μg/mL, 24 h, SFM): 80.5%
- Inhibition of migration with respect to untreated ([1]; 40 μg/mL, 48 h, 1% FBS): 35.3%
- Inhibition of migration with respect to untreated ([1]; 40 μg/mL, 48 h, SFM): 82.3%
- Inhibition of migration with respect to untreated ([1]; 40 μg/mL, 72 h, SFM): 82.2%
- Inhibition of migration with respect to untreated ([1]; 50 μg/mL, 24 h, 1% FBS): 30.0%
- Inhibition of migration with respect to untreated ([1]; 50 μg/mL, 24 h, SFM): 79.9%
- Inhibition of migration with respect to untreated ([1]; 50 μg/mL, 48 h, 1% FBS): 42.9%
- Inhibition of migration with respect to untreated ([1]; 50 μg/mL, 48 h, SFM): 81%
- Inhibition of migration with respect to untreated ([1]; 50 μg/mL, 72 h, SFM): 79.5%
- Inhibition of migration with respect to untreated ([1]; 60 μg/mL, 24 h, 1% FBS): 50.1%
- Inhibition of migration with respect to untreated ([1]; 60 μg/mL, 24 h, SFM): 82.0%
- Inhibition of migration with respect to untreated ([1]; 60 μg/mL, 48 h, 1% FBS): 63.5%
- Inhibition of migration with respect to untreated ([1]; 60 μg/mL, 48 h, SFM): 77.3%
- Inhibition of migration with respect to untreated ([1]; 60 μg/mL, 72 h, SFM): 76.0%
- Inhibition of migration with respect to untreated ([1]; 80 μg/mL, 24 h, 1% FBS): 65.6%
- Inhibition of migration with respect to untreated ([1]; 80 μg/mL, 24 h, SFM): 80.5%
- Inhibition of migration with respect to untreated ([1]; 80 μg/mL, 48 h, 1% FBS): 77.8%
- Inhibition of migration with respect to untreated ([1]; 80 μg/mL, 48 h, SFM): 78.2%
- Inhibition of migration with respect to untreated ([1]; 80 μg/mL, 72 h, SFM): 74.5%
- Inhibition of migration with respect to untreated ([1]; 100 μg/mL, 24 h, 1% FBS): 73.8%
- Inhibition of migration with respect to untreated ([1]; 100 μg/mL, 24 h, SFM): 55.7%
- Inhibition of migration with respect to untreated ([1]; 100 μg/mL, 48 h, 1% FBS): 73.1%
- Inhibition of migration with respect to untreated ([1]; 100 μg/mL, 48 h, SFM): 73.2%
- Inhibition of migration with respect to untreated ([1]; 100 μg/mL, 72 h, SFM): 71.5%
- % Population of cells, Apoptotic Sub(G0/G1) (MDA-MB-231; 2.5 μg/mL): 10.05%
- % Population of cells, G0/G1 (MDA-MB-231; 2.5 μg/mL): 65.21%
- % Population of cells, G2/M (MDA-MB-231; 2.5 μg/mL): 12.97%
- % Population of cells, S (MDA-MB-231; 2.5 μg/mL): 6.10%
- Fold Increase (wrt Control) Apoptotic Sub(G0/G1) (MDA-MB-231; 2.5 μg/mL): 4.1 fold
- % Population of cells, Apoptotic Sub(G0/G1) (MDA-MB-231; 5 μg/mL): 5.75%
- % Population of cells, G0/G1 (MDA-MB-231; 5 μg/mL): 61.99%
- % Population of cells, G2/M (MDA-MB-231; 5 μg/mL): 15.40%
- % Population of cells, S (MDA-MB-231; 5 μg/mL): 8.15%
- Fold Increase (wrt Control) Apoptotic Sub(G0/G1) (MDA-MB-231; 5 μg/mL): 2.3 fold
- % Population of cells, Apoptotic Sub(G0/G1) (MDA-MB-231; 10 μg/mL): 6.65%
- % Population of cells, G0/G1 (MDA-MB-231; 10 μg/mL): 60.71%
- % Population of cells, G2/M (MDA-MB-231; 10 μg/mL): 15.50%
- % Population of cells, S (MDA-MB-231; 10 μg/mL): 7.36%
- Fold Increase (wrt Control) Apoptotic Sub(G0/G1) (MDA-MB-231; 10 μg/mL): 2.7 fold
- % Population of cells, Apoptotic Sub(G0/G1) (MDA-MB-231; 20 μg/mL): 15.43%
- % Population of cells, G0/G1 (MDA-MB-231; 20 μg/mL): 55.66%
- % Population of cells, G2/M (MDA-MB-231; 20 μg/mL): 13.35%
- % Population of cells, S (MDA-MB-231; 20 μg/mL): 6.55%
- Fold Increase (wrt Control) Apoptotic Sub(G0/G1) (MDA-MB-231; 20 μg/mL): 6.3 fold
- % Population of cells, Apoptotic Sub(G0/G1) (MDA-MB-231; 80 μg/mL): 35.62%
- % Population of cells, G0/G1 (MDA-MB-231; 80 μg/mL): 42.49%
- % Population of cells, G2/M (MDA-MB-231; 80 μg/mL): 10.14%
- % Population of cells, S (MDA-MB-231; 80 μg/mL): 8.09%
- Fold Increase (wrt Control) Apoptotic Sub(G0/G1) (MDA-MB-231; 80 μg/mL): 14.5 fold
- % Population of cells, Apoptotic Sub(G0/G1) (PANC-1; 2.5 μg/mL): 1.60%
- % Population of cells, G0/G1 (PANC-1; 2.5 μg/mL): 38.89%
- % Population of cells, G2/M (PANC-1; 2.5 μg/mL): 24.83%
- % Population of cells, S (PANC-1; 2.5 μg/mL): 9.89%
- % Population of cells, Apoptotic Sub(G0/G1) (PANC-1; 5 μg/mL): 2.54%
- % Population of cells, G0/G1 (PANC-1; 5 μg/mL): 40.09%
- % Population of cells, G2/M (PANC-1; 5 μg/mL): 23.83%
- % Population of cells, S (PANC-1; 5 μg/mL): 10.31%
- Fold Increase (wrt Control) Apoptotic Sub(G0/G1) (PANC-1; 5 μg/mL): 1.4 fold
- % Population of cells, Apoptotic Sub(G0/G1) (PANC-1; 10 μg/mL): 4.23%
- % Population of cells, G0/G1 (PANC-1; 10 μg/mL): 44.43%
- % Population of cells, G2/M (PANC-1; 10 μg/mL): 23.92%
- % Population of cells, S (PANC-1; 10 μg/mL): 10.15%
- Fold Increase (wrt Control) Apoptotic Sub(G0/G1) (PANC-1; 10 μg/mL): 2.4 fold
- % Population of cells, Apoptotic Sub(G0/G1) (PANC-1; 20 μg/mL): 3.92%
- % Population of cells, G0/G1 (PANC-1; 20 μg/mL): 44.24%
- % Population of cells, G2/M (PANC-1; 20 μg/mL): 23.79%
- % Population of cells, S (PANC-1; 20 μg/mL): 10.83%
- Fold Increase (wrt Control) Apoptotic Sub(G0/G1) (PANC-1; 20 μg/mL): 2.2 fold
- % Population of cells, Apoptotic Sub(G0/G1) (PANC-1; 80 μg/mL): 6.21%
- % Population of cells, G0/G1 (PANC-1; 80 μg/mL): 39.63%
- % Population of cells, G2/M (PANC-1; 80 μg/mL): 27.41%
- % Population of cells, S (PANC-1; 80 μg/mL): 9.58%
- Fold Increase (wrt Control) Apoptotic Sub(G0/G1) (PANC-1; 80 μg/mL): 3.5 fold
- % Cytotoxicity (HT-29): 54.9%
- % Cytotoxicity (MDA-MB-453): 46.6%

— patent US20230348564A1, “ANTI-CANCER PROTEINS” (UNICHEM LABORATORIES LTD, priority 2020, published 2023)
